Test results from the supplement of paper PMC9112550, “Optimization of the antimicrobial peptide Bac7 by deep mutational scanning” (BMC Biology, 2022).
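Further: peptides expressed intracellularly from a pBAD plasmid library in pooled LB shake-flask culture, induced with 0.3% L-arabinose, DNA abundance read by NGS, three biological replicates, DESeq2 with apeglm shrinkage.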

What follows are sequences tested on Escherichia coli TOP10 (assay: shrunken log2 fold change of peptide-encoding DNA abundance (4.5 h post-induction vs induction); higher = less antimicrobial activity (less host growth inhibition)). Conditions: time post-induction: 4.5 h; library: site-saturation at positions 5, 18, 19, 20.
With RRIRSRPPRLPRPRPRPYNKPRP the “shrunken log2 fold change” value was -1.01.
With RRIRSRPPRLPRPRPRPYNRPRP the “shrunken log2 fold change” value was -0.267.
With RRIRSRPPRLPRPRPRPYPEPRP the “shrunken log2 fold change” value was -0.355.
RRIRSRPPRLPRPRPRPYPMPRP was tested, and the “shrunken log2 fold change” value was -0.035.
For RRIRSRPPRLPRPRPRPYQAPRP, the “shrunken log2 fold change” value was -0.0507.
For RRIRSRPPRLPRPRPRPYQFPRP, the “shrunken log2 fold change” value was 0.0245.
For RRIRSRPPRLPRPRPRPYQQPRP, the “shrunken log2 fold change” value was -2.39.
RRIRSRPPRLPRPRPRPYSNPRP was tested, and the “shrunken log2 fold change” value was -0.549.
With RRIRSRPPRLPRPRPRPYSYPRP the “shrunken log2 fold change” value was -0.393.
In the case of RRIRSRPPRLPRPRPRPYVLPRP, the “shrunken log2 fold change” value is reported as -0.277.
RRIRSRPPRLPRPRPRPYVTPRP was tested, and the “shrunken log2 fold change” value was -0.266.
With RRIRSRPPRLPRPRPRPYYQPRP the “shrunken log2 fold change” value was -0.608.
RRIRTRPPRLPRPRPRPAACPRP was tested, and the “shrunken log2 fold change” value was 0.0816.
In the case of RRIRTRPPRLPRPRPRPAAEPRP, the “shrunken log2 fold change” value is reported as 0.351.
RRIRTRPPRLPRPRPRPAAKPRP was tested, and the “shrunken log2 fold change” value was 0.217.
With RRIRTRPPRLPRPRPRPACSPRP the “shrunken log2 fold change” value was 0.19.
With RRIRTRPPRLPRPRPRPADIPRP the “shrunken log2 fold change” value was -0.0781.
In the case of RRIRTRPPRLPRPRPRPAEPPRP, the “shrunken log2 fold change” value is reported as 0.392.
For RRIRTRPPRLPRPRPRPAEYPRP, the “shrunken log2 fold change” value was -0.162.
RRIRTRPPRLPRPRPRPAFVPRP was tested, and the “shrunken log2 fold change” value was -0.163.
RRIRTRPPRLPRPRPRPAGGPRP was tested, and the “shrunken log2 fold change” value was 0.304.
In the case of RRIRTRPPRLPRPRPRPAHNPRP, the “shrunken log2 fold change” value is reported as -0.215.
For RRIRTRPPRLPRPRPRPAHTPRP, the “shrunken log2 fold change” value was 0.09.
For RRIRTRPPRLPRPRPRPAHWPRP, the “shrunken log2 fold change” value was 0.882.
RRIRTRPPRLPRPRPRPAKIPRP was tested, and the “shrunken log2 fold change” value was 0.0299.
RRIRTRPPRLPRPRPRPALVPRP was tested, and the “shrunken log2 fold change” value was 0.0324.
In the case of RRIRTRPPRLPRPRPRPANTPRP, the “shrunken log2 fold change” value is reported as -0.181.
RRIRTRPPRLPRPRPRPAPDPRP was tested, and the “shrunken log2 fold change” value was 0.15.
With RRIRTRPPRLPRPRPRPAPTPRP the “shrunken log2 fold change” value was 0.0808.
In the case of RRIRTRPPRLPRPRPRPARIPRP, the “shrunken log2 fold change” value is reported as -0.0205.
For RRIRTRPPRLPRPRPRPARQPRP, the “shrunken log2 fold change” value was 0.263.
In the case of RRIRTRPPRLPRPRPRPASNPRP, the “shrunken log2 fold change” value is reported as -0.00255.
In the case of RRIRTRPPRLPRPRPRPASYPRP, the “shrunken log2 fold change” value is reported as -0.347.
For RRIRTRPPRLPRPRPRPATDPRP, the “shrunken log2 fold change” value was 0.313.
With RRIRTRPPRLPRPRPRPATFPRP the “shrunken log2 fold change” value was -0.129.
With RRIRTRPPRLPRPRPRPAVDPRP the “shrunken log2 fold change” value was -0.209.
RRIRTRPPRLPRPRPRPAVGPRP was tested, and the “shrunken log2 fold change” value was 0.532.
For RRIRTRPPRLPRPRPRPAVYPRP, the “shrunken log2 fold change” value was -0.181.
RRIRTRPPRLPRPRPRPCDEPRP was tested, and the “shrunken log2 fold change” value was -0.0429.
With RRIRTRPPRLPRPRPRPCHEPRP the “shrunken log2 fold change” value was -0.0167.
In the case of RRIRTRPPRLPRPRPRPCHRPRP, the “shrunken log2 fold change” value is reported as -0.000687.
In the case of RRIRTRPPRLPRPRPRPCLQPRP, the “shrunken log2 fold change” value is reported as -0.0598.
In the case of RRIRTRPPRLPRPRPRPCMCPRP, the “shrunken log2 fold change” value is reported as -0.222.
RRIRTRPPRLPRPRPRPCNPPRP was tested, and the “shrunken log2 fold change” value was -0.0887.
For RRIRTRPPRLPRPRPRPCPEPRP, the “shrunken log2 fold change” value was -0.0641.
RRIRTRPPRLPRPRPRPCQAPRP was tested, and the “shrunken log2 fold change” value was -0.0455.
With RRIRTRPPRLPRPRPRPCQTPRP the “shrunken log2 fold change” value was -0.0283.
In the case of RRIRTRPPRLPRPRPRPCRFPRP, the “shrunken log2 fold change” value is reported as -0.265.
For RRIRTRPPRLPRPRPRPCRTPRP, the “shrunken log2 fold change” value was -0.0391.
With RRIRTRPPRLPRPRPRPCSFPRP the “shrunken log2 fold change” value was -0.625.
RRIRTRPPRLPRPRPRPCTMPRP was tested, and the “shrunken log2 fold change” value was -0.0721.
For RRIRTRPPRLPRPRPRPCTNPRP, the “shrunken log2 fold change” value was -0.0102.
RRIRTRPPRLPRPRPRPCWGPRP was tested, and the “shrunken log2 fold change” value was -0.234.
RRIRTRPPRLPRPRPRPCWPPRP was tested, and the “shrunken log2 fold change” value was 0.0465.
For RRIRTRPPRLPRPRPRPCWTPRP, the “shrunken log2 fold change” value was -0.442.
In the case of RRIRTRPPRLPRPRPRPCYMPRP, the “shrunken log2 fold change” value is reported as -0.156.
For RRIRTRPPRLPRPRPRPCYWPRP, the “shrunken log2 fold change” value was 0.0189.
In the case of RRIRTRPPRLPRPRPRPDDGPRP, the “shrunken log2 fold change” value is reported as 0.02.
RRIRTRPPRLPRPRPRPDDTPRP was tested, and the “shrunken log2 fold change” value was -0.12.
For RRIRTRPPRLPRPRPRPDEGPRP, the “shrunken log2 fold change” value was -0.0183.
With RRIRTRPPRLPRPRPRPDENPRP the “shrunken log2 fold change” value was 0.0019.
For RRIRTRPPRLPRPRPRPDFGPRP, the “shrunken log2 fold change” value was -0.0474.
For RRIRTRPPRLPRPRPRPDGGPRP, the “shrunken log2 fold change” value was -0.145.
RRIRTRPPRLPRPRPRPDGTPRP was tested, and the “shrunken log2 fold change” value was -0.208.
For RRIRTRPPRLPRPRPRPDHWPRP, the “shrunken log2 fold change” value was 0.0335.
In the case of RRIRTRPPRLPRPRPRPDHYPRP, the “shrunken log2 fold change” value is reported as -0.66.
With RRIRTRPPRLPRPRPRPDIHPRP the “shrunken log2 fold change” value was -0.357.
RRIRTRPPRLPRPRPRPDIKPRP was tested, and the “shrunken log2 fold change” value was -0.197.
For RRIRTRPPRLPRPRPRPDKGPRP, the “shrunken log2 fold change” value was 0.0109.
For RRIRTRPPRLPRPRPRPDMWPRP, the “shrunken log2 fold change” value was -0.126.
With RRIRTRPPRLPRPRPRPDNLPRP the “shrunken log2 fold change” value was -0.479.
In the case of RRIRTRPPRLPRPRPRPDNPPRP, the “shrunken log2 fold change” value is reported as -0.371.
RRIRTRPPRLPRPRPRPDQLPRP was tested, and the “shrunken log2 fold change” value was -0.0381.
RRIRTRPPRLPRPRPRPDTCPRP was tested, and the “shrunken log2 fold change” value was -0.0125.
In the case of RRIRTRPPRLPRPRPRPDVPPRP, the “shrunken log2 fold change” value is reported as -0.0167.
In the case of RRIRTRPPRLPRPRPRPEAAPRP, the “shrunken log2 fold change” value is reported as 0.574.
For RRIRTRPPRLPRPRPRPEARPRP, the “shrunken log2 fold change” value was 0.552.
For RRIRTRPPRLPRPRPRPEDCPRP, the “shrunken log2 fold change” value was 0.0288.
With RRIRTRPPRLPRPRPRPEDYPRP the “shrunken log2 fold change” value was -0.00822.
For RRIRTRPPRLPRPRPRPEGMPRP, the “shrunken log2 fold change” value was 0.18.
RRIRTRPPRLPRPRPRPEGTPRP was tested, and the “shrunken log2 fold change” value was 0.0681.
RRIRTRPPRLPRPRPRPEHWPRP was tested, and the “shrunken log2 fold change” value was -0.00863.
RRIRTRPPRLPRPRPRPEIRPRP was tested, and the “shrunken log2 fold change” value was -0.0371.
RRIRTRPPRLPRPRPRPEKQPRP was tested, and the “shrunken log2 fold change” value was -0.0379.
RRIRTRPPRLPRPRPRPELIPRP was tested, and the “shrunken log2 fold change” value was -0.0864.
For RRIRTRPPRLPRPRPRPELLPRP, the “shrunken log2 fold change” value was 0.39.
In the case of RRIRTRPPRLPRPRPRPEMCPRP, the “shrunken log2 fold change” value is reported as -0.00146.
For RRIRTRPPRLPRPRPRPEMGPRP, the “shrunken log2 fold change” value was -0.0368.
With RRIRTRPPRLPRPRPRPEMIPRP the “shrunken log2 fold change” value was 0.0294.
In the case of RRIRTRPPRLPRPRPRPEMQPRP, the “shrunken log2 fold change” value is reported as -0.00136.
In the case of RRIRTRPPRLPRPRPRPEMRPRP, the “shrunken log2 fold change” value is reported as 0.825.
With RRIRTRPPRLPRPRPRPENDPRP the “shrunken log2 fold change” value was -0.0847.
In the case of RRIRTRPPRLPRPRPRPENHPRP, the “shrunken log2 fold change” value is reported as -0.119.
For RRIRTRPPRLPRPRPRPEPPPRP, the “shrunken log2 fold change” value was 0.395.
For RRIRTRPPRLPRPRPRPEQVPRP, the “shrunken log2 fold change” value was -0.00471.
For RRIRTRPPRLPRPRPRPESQPRP, the “shrunken log2 fold change” value was -0.0324.
For RRIRTRPPRLPRPRPRPETCPRP, the “shrunken log2 fold change” value was -0.0408.
RRIRTRPPRLPRPRPRPEVSPRP was tested, and the “shrunken log2 fold change” value was -0.28.
With RRIRTRPPRLPRPRPRPEYWPRP the “shrunken log2 fold change” value was -0.00483.
RRIRTRPPRLPRPRPRPFCVPRP was tested, and the “shrunken log2 fold change” value was -0.229.
For RRIRTRPPRLPRPRPRPFDQPRP, the “shrunken log2 fold change” value was 0.176.
In the case of RRIRTRPPRLPRPRPRPFDWPRP, the “shrunken log2 fold change” value is reported as 0.0371.
With RRIRTRPPRLPRPRPRPFEQPRP the “shrunken log2 fold change” value was -0.225.
RRIRTRPPRLPRPRPRPFFGPRP was tested, and the “shrunken log2 fold change” value was 0.0239.
With RRIRTRPPRLPRPRPRPFFLPRP the “shrunken log2 fold change” value was -0.299.
RRIRTRPPRLPRPRPRPFFMPRP was tested, and the “shrunken log2 fold change” value was -0.231.
RRIRTRPPRLPRPRPRPFGIPRP was tested, and the “shrunken log2 fold change” value was -0.338.
In the case of RRIRTRPPRLPRPRPRPFGNPRP, the “shrunken log2 fold change” value is reported as 0.101.
RRIRTRPPRLPRPRPRPFGQPRP was tested, and the “shrunken log2 fold change” value was -0.0675.
